Where two headings read alike, the source gives them in different places.
T1: Human TIGIT-his (ACRO, TIT-H52H3) (human, UniProt Q495A1 22-141)
T1 construct: Bought protein
T1 sequence: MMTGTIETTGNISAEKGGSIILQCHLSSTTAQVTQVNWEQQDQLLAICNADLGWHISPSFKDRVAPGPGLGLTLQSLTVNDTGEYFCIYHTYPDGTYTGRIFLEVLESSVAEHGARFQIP

T2: Human TIGIT expressed on the surface of cells (human, UniProt Q495A1 22-244)
T2 construct: also called human TIGIT expressed on the surface of CHO cells; human TIGIT overexpressed on CHO cells
T2 sequence: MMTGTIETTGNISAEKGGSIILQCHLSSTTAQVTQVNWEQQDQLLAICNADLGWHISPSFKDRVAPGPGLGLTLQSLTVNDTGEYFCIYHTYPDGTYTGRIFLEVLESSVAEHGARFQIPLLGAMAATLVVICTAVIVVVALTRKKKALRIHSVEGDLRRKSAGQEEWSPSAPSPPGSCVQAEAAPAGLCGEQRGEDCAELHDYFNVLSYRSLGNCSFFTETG

B1: 22G2 (anti-human TIGIT reference antibody from BMS) (antibody, V domains shown)
VH: QVHLQESGPGLVKPSETLSLTCTVSGGSVSSGIYYWSWIRQPPGKGLEWIGYIYYSGSTNYNPSLKSRVTISVDTSKNQFSLKLSSVTAADTAVYYCARDYYVSGNYYNVDYYFFGVDVWGQGTTVTVSS
VL: EIVLTQSPATLSLSPGERATLSCRASQSVSSYLAWYQQKPGQAPRLLIYDASNRATGIPARFSGSGSGTDFTLTISSLEPEDFAVYYCQQRSNWPPLFTFGPGTKVDIK
B2: 31C6 (anti-human TIGIT reference antibody from Merck) (antibody, V domains shown)
VH: EVQLVQSGAEVKKPGASVKVSCKASGYTFSSYVMHWVRQAPGQGLEWIGYIDPYNDGAKYAQKFQGRVTLTSDKSTSTVYMELSSLRSEDTAVYYCARGGPYGWYFDVWGQGTTVTVSS
VL: DIQMTQSPSSLSASVGDRVTITCRASEHIYSYLSWYQQKPGKAPKLLIYNAKTLAEGVPSRFSGSGSGTDFTLTISSLQPEDFATYYCQHHFGSPLTFGQGTRLEIK

How the values were obtained:
[1] = molecular target: T3, Monkey TIGIT-his (ACRO, TIT-05223) (monkey); experiment: BLI (ForteBio), antibody loaded on AHQ sensor, 100 nM TIGIT-his, 1:1 model, monovalent
T3 construct: Bought protein

[2] = molecular target: T1, Human TIGIT-his (ACRO, TIT-H52H3); experiment: as above
[3] = molecular target: T2, Human TIGIT expressed on the surface of …; experiment: flow cytometry on CHO cells overexpressing human TIGIT; reference antibody in the run with CHO-expressed antibodies
[4] = molecular target: T2, Human TIGIT expressed on the surface of …; experiment: flow cytometry on CHOS cells expressing human TIGIT; reference antibody
[5] = molecular target: T2, Human TIGIT expressed on the surface of …; experiment: cell-based or functional assay
[6] = molecular target: T2, Human TIGIT expressed on the surface of …; experiment: flow cytometry competition against 50 nM human CD155-mouse IgG2a Fc on CHOS cells expressing human TIGIT; positive control
[7] = molecular target: T2, Human TIGIT expressed on the surface of …; experiment: as above; remark: listed apart in the source
[8] = molecular target: T2, Human TIGIT expressed on the surface of …; experiment: cell-based or functional assay; remark: listed apart in the source

Binder | Kd [1] [nM] | Kd [2] [nM] | EC50 [3] [nM] | EC50 [4] [nM] | EC50, MOA-based assay (luciferase reporter under IL2 promoter) [5] [nM] | IC50 [6] [nM] | IC50 [7] [nM] | EC50, MOA-based assay (luciferase reporter under IL2 promoter), positive control in the run with CHO-expressed antibodies [8] [nM]
B1 | 4.2 | 3.5 | 0.725 | 0.511 | 2.11 | 0.179 | 0.607 | –
B2 | 0.472 | 2.34 | 0.185 | 0.436 | 0.838 | 0.154 | 0.166 | 0.342

Reference: US20210040201A1 (Innovent, published 2021)
